Results published in PMC11371196, “PLASMODESMATA-LOCATED PROTEIN 6 regulates plasmodesmal function in Arabidopsis vasculature” (The Plant Cell, 2024).
Where no end group is shown, it is not given here.

B1: biotinylated C-terminal tail of PDLP7 (peptide)
peptide: RGVCSRGGDFSILHSFTLI
modifications: also: biotin (position not given here)
notes: C-terminal tail of PDLP7, Arabidopsis thaliana, At5G37660; also called PDLP7-CT-biotin; source: synthetic peptide, bought: PEPTIDE 2.0
B2: biotinylated C-terminal tail of PDLP6 (peptide)
peptide: AKSCERGKGGK
modifications: also: biotin (position not given here)
notes: C-terminal tail of PDLP6, which faces the cytoplasmic sleeve; Arabidopsis thaliana, At2g01660; also called PDLP6-CT-biotin; source: synthetic peptide, bought: PEPTIDE 2.0
B3: biotinylated C-terminal tail of PDLP5 (peptide)
peptide: GKCCRKLQDEKWCK
modifications: cysteine pairing not given here; also: biotin (position not given here)
notes: C-terminal tail of PDLP5, Arabidopsis thaliana, At1g70690; also called PDLP5-CT-biotin; source: synthetic peptide, bought: PEPTIDE 2.0

What was measured:
[1] = target: free MBP (UniProt P0AEX9 27-396 = MBP); assay: pull-down; 1 μg biotinylated peptide with 1 μg MBP or MBP fusion protein in 300 μL binding buffer (50 mM Tris pH 7.5, 150 mM NaCl, 0.05% NP-40), 4 °C overnight; Dynabeads MyOne Streptavidin C1; immunoblot with MBP antibody; conditions: both partners purified
[2] = target: T1, maltose binding protein fused SUS6 (Arabidopsis thaliana, UniProt Q9FX32 1-942); assay: as above; conditions: both partners purified
T1 construct: SUCROSE SYNTHASE 6 (SUS6), Arabidopsis thaliana, At1G73370; also called MBP-SUS6; pET-MBP-SUS6; source: E. coli Rosetta, purified (amylose resin); not shown: MBP, N-terminal, kept
T1 sequence (Q9FX32 whole entry, the tested form may be a part): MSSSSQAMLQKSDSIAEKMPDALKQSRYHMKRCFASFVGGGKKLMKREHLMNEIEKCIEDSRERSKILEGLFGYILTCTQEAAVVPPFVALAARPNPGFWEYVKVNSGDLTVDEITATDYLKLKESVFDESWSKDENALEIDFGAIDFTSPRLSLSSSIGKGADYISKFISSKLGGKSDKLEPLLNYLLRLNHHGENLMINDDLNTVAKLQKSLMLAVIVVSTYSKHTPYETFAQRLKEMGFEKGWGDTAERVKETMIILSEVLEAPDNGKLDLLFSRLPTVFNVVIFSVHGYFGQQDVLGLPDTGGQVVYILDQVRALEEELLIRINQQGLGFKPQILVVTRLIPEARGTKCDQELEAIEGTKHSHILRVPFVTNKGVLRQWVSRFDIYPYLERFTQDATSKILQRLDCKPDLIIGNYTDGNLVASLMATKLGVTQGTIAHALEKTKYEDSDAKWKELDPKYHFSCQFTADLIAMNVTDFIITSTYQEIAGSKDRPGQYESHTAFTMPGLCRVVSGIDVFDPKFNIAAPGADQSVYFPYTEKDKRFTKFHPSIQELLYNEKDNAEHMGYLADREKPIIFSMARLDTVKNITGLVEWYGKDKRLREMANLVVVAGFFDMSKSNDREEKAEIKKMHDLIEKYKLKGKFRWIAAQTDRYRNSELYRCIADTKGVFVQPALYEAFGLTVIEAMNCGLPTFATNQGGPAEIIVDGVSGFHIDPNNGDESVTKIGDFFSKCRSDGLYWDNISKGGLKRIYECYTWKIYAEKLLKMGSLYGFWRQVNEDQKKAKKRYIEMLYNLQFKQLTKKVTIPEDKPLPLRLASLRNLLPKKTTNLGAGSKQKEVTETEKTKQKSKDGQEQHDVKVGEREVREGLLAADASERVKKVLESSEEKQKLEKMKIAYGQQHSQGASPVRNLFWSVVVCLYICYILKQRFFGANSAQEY

| Binder | binding result [1] | binding result [2] |
| --- | --- | --- |
| B1 | binds |  |
| B2 |  | binds |
| B3 |  | binds |
